Data set [1] is described as follows: Trehalose phosphorylase activity assay (specific activity, influence of temperature and pH). It counts as biochemical. On the procedure: (§1) The present trehalose phosphorylase activity is assayed as follows: Add 0.2 ml of an enzyme solution to 2 ml of 20 mM phosphate buffer (pH 7.0) containing 1.0 w/v % trehalose as a substrate, incubate the solution at 60° C. for 30 min, sample the reaction mixture in an amount of 0.5 ml, and incubate the sample at 100° C. for 10 min to suspend the enzymatic reaction. Add 0.5 ml of D-glucose oxidase/peroxidase reagent to the heated sample, stir the mixture, keep the mixture at 40° C. for 30 min, add 2.5 ml of 5-N hydrochloric acid, stir the resulting mixture, and measure the absorbance of the mixture at a wavelength of 525 nm. One unit of the enzyme activity is defined as the enzyme that forms one […] of D-glucose per one minute. The activity of maltose- and kojibiose-phosphorylases can be assayed similarly as the same assay as indicated above except that the trehalose as a substrate is respectively replaced with maltose and kojibiose.
The yield of the purified enzyme specimen, obtained by the above purification steps, was about 25% with respect to the enzyme activity of the supernatant of the disrupted cell suspension. […] Protein was quantified according to the Lowry method using calf serum albumin as a standard protein.
Influences of temperatures and pHs on the present trehalose phosphorylase activity were studied in accordance with the assay for enzyme activity. […] In both cases, the enzymatic reactions were suspended similarly as in the enzyme assay, followed by quantifying the formed glucose. […] The thermal stability of the enzyme was determined by incubating the enzyme dissolved in 10 mM phosphate buffer (pH 7.0) at a temperature of about 40-85° C. for one hour, cooling the incubated enzyme, and assaying for the residual enzyme activity according to the enzyme assay. The pH stability of the enzyme was determined by dissolving the enzyme in buffers with different pHs of about 4-10, keeping each enzyme solution at 4° C. for 24 hours, adjusting each solution to give a pH of 7.0, and assaying for the residual enzyme activity according to the enzyme assay. […]

Data set [2] can be described thus: Thermal and pH stability of trehalose phosphorylase (residual enzyme activity). It counts as physicochemical. On the procedure: as §1, with “The activity of maltose- and kojibiose-phosphorylases can be assayed similarly as the same assay as indicated above except that the trehalose as a substrate is respectively replaced with maltose and kojibiose.” left out
Influences of temperatures and pHs on the present trehalose phosphorylase activity were studied in accordance with the assay for enzyme activity. […] In both cases, the enzymatic reactions were suspended similarly as in the enzyme assay, followed by quantifying the formed glucose. […] The thermal stability of the enzyme was determined by incubating the enzyme dissolved in 10 mM phosphate buffer (pH 7.0) at a temperature of about 40-85° C. for one hour, cooling the incubated enzyme, and assaying for the residual enzyme activity according to the enzyme assay. […]

Data set [3] can be described thus: Isoelectric point by polyacrylamide gel electrophoresis using ampholyte. It counts as physicochemical. The conditions noted are these: electrophoresis using 2 w/v % ampholyte.

B1: trehalose phosphorylase: novel thermostable trehalose phosphorylase purified from Thermoanaerobium brockii, ATCC 35047; amino acid sequence of SEQ ID NO:4 (protein)
chain: ANKTKKPIYPFEDWVIRETQFSIDTNYRNETIFTLANGYIGMRGTFEERYSGPKNTSFNGTYINGFYEIHDIVYPEGGYGFAKIGQTMLNVADSKIIKLYVDGEEFDLLQGKILFYERVLDMKKGFVERKVKWESPTGKILEVKIKRIVSLNRQHLAAISFTMQPVNFTGKIRFVSAIDGNVSNINDSEDVRVGSNLKGKVLKTIDKSVEGLKGWIVQKTQKSNFSYACAIDNVLVADSKYEVSNSLEEDGVKVIVDLEAEKGTSYTLNKFISYYTSKDFDENKLVALALEEIEKAKNDGFETIEKEQEEFLNSFWKDADVIIEGDKALQQGIRFNEFHLLQSVGRDGKTNIAAKGLTGGGYEGHYFWDSDIYIMPFFLYTKPEIAKALVMYRYNLLDAARSRAKELGHKGALYPWRTIDGPECSAYFPAGTAQYHINADIVYALKRYVEATNDVDFLYDYGCEILFETARFWEDLGAYIPLKGNKFCINCVTGPDEYTALVDNNAYTNYMAKMNLEYAYDIANKMKKEVPQKYQKVASKLNLKDEEIVAWKKAADNMYLPYSKELDIIPQDDSFLYKERITVDEIPEDQFPLLLHWHYLNIYRYQICKQPDVLLLMFLQREKFTKDELKKNYDYYEPITTHDSSLSPAIFSILANEIGYTDKAYKYFMMTARMDLDDYNDNVKDGIHAASMAGTWSAVVNGFGGMRVYTNELHFEPRLPKEWNLLSFNVRYKGRKINVKLTKENVVFALLEGEPIEIYYFDKKILLEKGEIK
Consider B1, for which the “Optimum pH” value in data set [1] (incubated at 60° C. for 30 min) is recorded as 7.0-7.5. Further, the Optimum temperature entry in data set [1] (incubated at pH 7.0 for 30 min) is “about 70 °C”. This molecule also yielded a Specific activity in data set [1] (purified enzyme specimen, trehalose substrate, 60° C., pH 7.0) of 78.2 units/mg protein. In addition, in data set [2] (10 mM phosphate buffer pH 7.0, one hour), the Thermal stability entry is “up to 60 °C”. In data set [2] (4° C. for 24 hours), the pH stability is reported as 6.0-9.0. Also, the “Isoelectric point (pI)” value in data set [3] was 5.4±0.5.

The values above are taken from patent publication US5993889A, “Trehalose phosphorylase, its preparation and use” (Kabushiki Kaisha Hayashibara Seibutsu Kagaku Kenkyujo, priority 1996, dated 1999).
